Biological target: Myc-GPI-TSHR-ecd (TSH receptor ectodomain, residues 1-412, linked to a GPI anchor, Myc-tagged) (human) (UniProt P16473)
Test: FRET or BRET; sensitized emission FRET on transfected HEK 293 cells fixed with 4% paraformaldehyde; anti-HA FITC (donor) and anti-Myc Cy3 (acceptor), or GFP (donor) and anti-Myc Cy3 (acceptor) for full-length receptors; pFRET software

Question: For “HA-GPI-TSHR-ecd (TSH receptor ectodomain, residues 1-412, linked to a GPI anchor, HA-tagged) (from UniProt P16473 21-412) (domain or fragment)”, which FRET efficiency is on record?
Answer: The FRET efficiency was 8 to 10%.
